Data published in US20140044674A1.

Biological target: IL-10R on freshly isolated human blood monocytes (human) (UniProt Q13651)
Assay: cell-based or functional assay

Sequence of IL-10R on freshly isolated human blood monocytes (human) (Q13651 22-578, chain 1 of 2): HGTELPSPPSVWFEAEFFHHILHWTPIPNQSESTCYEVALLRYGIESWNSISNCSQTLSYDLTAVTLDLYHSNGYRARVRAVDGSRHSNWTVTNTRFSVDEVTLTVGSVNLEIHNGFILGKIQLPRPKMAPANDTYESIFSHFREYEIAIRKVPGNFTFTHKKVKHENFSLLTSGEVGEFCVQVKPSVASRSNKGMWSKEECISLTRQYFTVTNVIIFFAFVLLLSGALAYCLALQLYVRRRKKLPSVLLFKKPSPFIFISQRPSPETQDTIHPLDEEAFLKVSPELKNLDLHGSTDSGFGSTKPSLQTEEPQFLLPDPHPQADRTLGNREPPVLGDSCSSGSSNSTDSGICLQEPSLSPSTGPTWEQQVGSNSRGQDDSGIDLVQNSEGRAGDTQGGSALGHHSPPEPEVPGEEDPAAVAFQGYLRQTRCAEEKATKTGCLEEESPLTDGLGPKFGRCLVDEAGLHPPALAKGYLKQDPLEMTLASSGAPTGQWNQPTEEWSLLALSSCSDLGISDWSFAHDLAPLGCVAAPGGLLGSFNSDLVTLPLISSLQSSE
Sequence of IL-10R on freshly isolated human blood monocytes (human) (Q08334 20-325, chain 2 of 2, further chain): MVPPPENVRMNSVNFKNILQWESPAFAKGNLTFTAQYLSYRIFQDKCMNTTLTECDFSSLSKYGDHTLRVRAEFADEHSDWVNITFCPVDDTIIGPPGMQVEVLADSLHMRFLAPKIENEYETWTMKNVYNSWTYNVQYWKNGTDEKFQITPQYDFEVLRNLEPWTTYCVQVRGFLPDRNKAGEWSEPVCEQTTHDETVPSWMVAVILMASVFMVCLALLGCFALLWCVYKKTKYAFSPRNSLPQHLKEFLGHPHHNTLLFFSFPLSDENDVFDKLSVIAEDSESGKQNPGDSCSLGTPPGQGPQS

EC50 [nM] pSTAT3 induction, primary monocytes: 0.017 nM
EC50 [nM] pSTAT3 induction, primary monocytes, Donor 1: 0.029 nM
EC50 [nM] pSTAT3 induction, primary monocytes, Donor 2: 0.019 nM
EC50 [nM] pSTAT3 induction, primary monocytes, Donor 3: 0.021 nM
Substance: recombinant wild type human IL-10 (from UniProt P22301 19-178) (ligand)
